Experiment [1] relates to HFF cells. The experiment in a line: Collagen I production in the presence of dexamethasone. Format: cell-based, human. The procedure:
(§1) Primary human foreskin fibroblast cells (HFF) were seeded into 96 well plates at a density of 1.2×10^4 cells/well and cultured overnight in 10% fetal bovine serum/Dulbecco's minimum essential media (10% FBS/DMEM) at 37° C. and 5% CO2. The cells were then starved overnight in serum free DMEM and triplicate wells treated for six hours with a range of doses of proteins with peroxidase activity; horse radish peroxidase (HRP; 0.2-50 ug/ml), Arthromyces ramosus peroxidase (ARP; 0.2-50 ug/ml), microperoxidase (MP; 8-500 ug/ml), soy bean peroxidase (SBP; 0.2-100 ug/ml) and lactoperoxidase (LP; 10-310 ug/ml) (all obtained from Sigma-Aldrich). At the end of the six hour treatment period, the media was aspirated and replaced with fresh serum free DMEM and the cells cultured for a further 72 hours. After 72 hours the culture media was collected for assessment of secreted, soluble collagen types I, III and VI as well as fibronectin protein and the cells assessed for viability/growth using an alamar blue fluorescent dye assay. This assay measures the reduction of oxidized, blue nonfluorescent Alamar Blue reagent to a pink fluorescent dye in the cell medium, such that the higher the amount of reduction, the greater the cell number and/or activity (O'Brien Eur J Biochem 267 2000). Briefly, cells were bathed in a 10% Alamar Blue/phosphate-buffered saline (PBS) solution for 30-60 minutes and fluorescence measured at wavelengths of 485 nm excitation and 595 nm emission using a Wallac Victor Multilabel HTS counter. Relative fluorescent units (RFU) for each sample were normalized to control wells (DMEM only treated cells) and data expressed as mean±standard error of the mean (sem) for triplicate wells. Experiments were repeated at least three times with the combined data from all experiments shown.
The amount of soluble collagen types I, III, and VI in HFF conditioned media was measured by a direct coat ELISA method using standard curves constructed from purified human collagen I, III or VI (extracted from human placenta; col I, BD Biosciences; col III and VI, Rocklands Immunochemicals) and fibronectin (extracted from human plasma, Chemicon). Samples and standards (20 μl/well) were added to a 384 well spectraplate (Packard BioScience) and left at room temperature (RT) overnight. […] After a final wash (6×PBS-T), enhancement solution was added for at least 10 minutes and fluorescence measured at excitation 340 nm and emission 615 nm using a Wallac Victor Multilabel HTS counter. The respective ECM concentration of each sample was determined from the standard curve (μg/ml) and normalized to control wells (DMEM only treated cells) with the mean±sem for triplicate wells calculated. […]

Experiment [2] deals with human foreskin fibroblast cells (HFF). The experiment can be described thus: Alamar blue viability/growth assay. Conditions: 72 hours. Format: cell-based. The procedure: as §1, with “At the end of the six hour treatment period, the media was aspirated and replaced with fresh serum free DMEM and the cells cultured for a further 72 hours.” left out, “This assay measures the reduction of oxidized, blue nonfluorescent Alamar Blue reagent to a pink fluorescent dye in the cell medium, such that the higher the amount of reduction, the greater the cell number and/or activity (O'Brien Eur J Biochem 267 2000).” left out, “Experiments were repeated at least three times with the combined data from all experiments shown.” left out
In general terms: Alamar Blue is a resazurin reagent that responds to reducing activity.

Experiment [3] has as its system dermis. The experiment can be described thus: Fibrogenic response after intradermal injection. Format: in vivo, Sprague-Dawley rats. Conditions: LP 125 μg, TGFβ 0.5 μg, 3 days. The procedure:
Groups of up to 4-8 female Sprague-Dawley rats were lightly anaesthetized and the dorsum shaved. At different sites on their dorsum, each rat received a bolus, intradermal injection of 4 doses of a protein with peroxidase activity (LP, […]; HRP, 1.25-25 μg; SBP, 1.25-25 μg; or micro-peroxidase [MP], 5-125 μg), a vehicle control or TGFβ2 as a positive control. Arthromyces ramosus peroxidase (ARP) was also injected at one dose of 25 μg. Proteins with peroxidase activity were injected in a volume of 50 μl which was sufficient to create a small blister in the skin that resolved within a few minutes. Across the group of rats, each dose of proteins with peroxidase activity was injected into each of the different injection sites to control for any site-related, intra-rat variation. The rats were returned to their cage and left alone for 3 days after which they were killed by CO2 asphyxiation and the skin at the injection sites collected for analysis. The skin at the injection sites was excised using a 6 mm biopsy punch with each piece bisected and fixed in 10% buffered formalin. Fixed tissue was processed for histological assessment by graded dehydration and mounting in paraffin blocks. Blocks were sectioned and sections stained with haematoxylin and eosin (H&E) and Masson's trichrome for qualitative analysis by an experienced pathologist. H&E stained sections were scored for the “fibroblast reaction” (1+-4+) to reflect the number of fibroblast cells identified at the injection site, with 4+ representing the greatest response. H&E and Massons trichrome stained sections were used to evaluate the amount of deposited, collagen-rich extracellular matrix (ECM) that was associated with the fibroblast reaction at each injection site. The collagen-rich ECM deposition was scored 1+-3+ with 3+ representing the greatest response. The scores were combined across the group of rats and statistical analysis performed using a Kruskal-Wallis one way analysis of variance on ranks (ANOVA) followed by post-hoc t-test comparing the response of the proteins with peroxidase activity to the control using Dunn's or Dunnett's method, p<0.05 was considered significant.

Experiment [4] relates to human foreskin fibroblast cells (HFF cells). The experiment in a line: Repeated stimulation of collagen I production. Format: cell-based. Conditions: further 5 days without second stimulation. On the procedure:
Experiments were performed to ensure human fibroblast cells could be stimulated to increase ECM protein production by proteins having peroxidase activity after more than one application of the proteins having peroxidase activity. The capacity to respond repeatedly to the proteins having peroxidase activity provides important utility for the generation of ECM in vitro, particularly given that spent culture media needs to be replaced on a regular basis to maintain the viability of the cells. These experiments were performed using human foreskin fibroblast cells (HFF cells) seeded into 96 well plates at a density of 1.2×10^4 cells/well and cultured for one week in 10% fetal bovine serum/Dulbecco's minimum essential media (10% FBS/DMEM) at 37° C. and 5% CO2 (as described in Example 3). The confluent cells were then starved overnight in serum free DMEM and triplicate wells treated for six hours with MP, ARP and LP as representative proteins having peroxidase activity or the control agents transforming growth factor β2 (TGFβ2; R&D Systems) and 10% FBS (JRH BioSciences). After 48 hours, the conditioned media was collected for measurement of collagen I (as a representative ECM protein) and the cells either restimulated for six hours with fresh solutions containing proteins having peroxidase activity or control agents or the media was replaced with fresh serum free DMEM. The cells were cultured for a further 5 days after which the media was collected a second time for the measurement of collagen I. Media was also collected from replicate wells treated at the start of the experiment and left for 7 days (total culture period) for comparison.

The subject of experiment [5] is human foreskin fibroblast cells (HFF). The experiment in a line: Soluble collagen I, III and VI in HFF conditioned media (direct coat ELISA). Format: cell-based. To be noted: 30 μg/ml, 72 hours. On the procedure:
as §1, with “After 72 hours the culture media was collected for assessment of secreted, soluble collagen types I, III and VI as well as fibronectin protein and the cells assessed for viability/growth using an alamar blue fluorescent dye assay.” left out
The amount of soluble collagen types I, III, and VI in HFF conditioned media was measured by a direct coat ELISA method using standard curves constructed from purified human collagen I, III or VI (extracted from human placenta; col I, BD Biosciences; col III and VI, Rocklands Immunochemicals) and fibronectin (extracted from human plasma, Chemicon). Samples and standards (20 μl/well) were added to a 384 well spectraplate (Packard BioScience) and left at room temperature (RT) overnight. The spectraplate was then washed 6 times with PBS-tween 0.05% (PBS-T) and 2.5% bovine serum albumin (BSA)/PBS blocking solution added to each well and the plate incubated for 1 hour at RT. The plate was then washed 6 times with PBS-T and primary antibody (0.25 μg/ml rabbit-anti-human-collagen I polyclonal; 2 μg/ml rabbit-anti-human-collagen III polyclonal; 0.25 μg/ml rabbit-anti-human-collagen VI polyclonal; 0.2 μg/ml rabbit-anti-human-fibronectin polyclonal, all from Rockland Immunochemicals) in 5% non-fat dairy milk added to each well for four hours at RT. After washing (6×PBS-T), europium tagged anti-rabbit secondary antibody (0.5 μg/ml 1% BSA/PBS; Wallac Oy) was added for 1 hour at RT. After a final wash (6×PBS-T), enhancement solution was added for at least 10 minutes and fluorescence measured at excitation 340 nm and emission 615 nm using a Wallac Victor Multilabel HTS counter. The respective ECM concentration of each sample was determined from the standard curve (μg/ml) and normalized to control wells (DMEM only treated cells) with the mean±sem for triplicate wells calculated. Experiments were repeated at least three times with the combined data from all experiments shown.

The results in this text go back to US20100239556A1, “PROMOTING ECM PRODUCTION BY FIBROBLAST CELLS AND/OR PROMOTING MIGRATION OF FIBROBLAST CELLS IN A BIOLOGICAL SYSTEM” (TGR BioScience Pty Ltd., priority 2006, published 2010).

Take `C[C@@H]1C[C@H]2[C@@H]3CCC4=CC(=O)C=C[C@]4(C)[C@@]3(F)[C@@H](O)C[C@]2(C)[C@@]1(O)C(=O)CO` [dexamethasone, reference compound]: the inhibition at 20 µM in experiment [1] (Homo sapiens, HFF, dexamethasone 20 μM, read-out: inhibition of collagen stimulated by ARP) was approximately 30%. In the case of recombinant ascorbate peroxidase [APX], the “HFF cell growth or viability” value in experiment [2] is listed as “Neither APX nor MPO had a major effect”.

B1: transforming growth factor β2 (protein, UniProt P61812 303-414, looked up)
Transforming growth factor …: ALDAAYCFRNVQDNCCLRPLYIDFKRDLGWKWIHEPKGYNANFCAGACPYLWSSDTQHSRVLSLYNTINPEASASPCCVSQDLEPLTILYYIGKTPKIEQLSNMIVKSCKCS
notes: control agent, fibrogenic factor (R&D Systems)
For the molecule B1, in experiment [3], the “number of fibroblasts present at the injection site (H&E images)” value is on record as “profound increase in the number of fibroblasts”. In experiment [1] (1-10 ng/ml, no dexamethasone), the “maximum increase in collagen I levels” value was 2-2.5 fold. The “collagen I production when left untreated after the media change at day 2” value in experiment [4] is “maintained level of collagen I production”.

B2: myeloperoxidase (protein, UniProt P05164 165-745, looked up)
Myeloperoxidase: VTCPEQDKYRTITGMCNNRRSPTLGASNRAFVRWLPAEYEDGFSLPYGWTPGVKRNGFPVALARAVSNEIVRFPTDQLTPDQERSLMFMQWGQLLDHDLDFTPEPAARASFVTGVNCETSCVQQPPCFPLKIPPNDPRIKNQADCIPFFRSCPACPGSNITIRNQINALTSFVDASMVYGSEEPLARNLRNMSNQLGLLAVNQRFQDNGRALLPFDNLHDDPCLLTNRSARIPCFLAGDTRSSEMPELTSMHTLLLREHNRLATELKSLNPRWDGERLYQEARKIVGAMVQIITYRDYLPLVLGPTAMRKYLPTYRSYNDSVDPRIANVFTNAFRYGHTLIQPFMFRLDNRYQPMEPNPRVPLSRVFFASWRVVLEGGIDPILRGLMATPAKLNRQNQIAVDEIRERLFEQVMRIGLDLPALNMQRSRDHGLPGYNAWRRFCGLPQPETVGQLGTVLRNLKLARKLMEQYGTPNNIDIWMGGVSEPLKRKGRVGPLLACIIGTQFRKLRDGDRFWWENEGVFSMQQRQALAQISLPRIICDNTGITTVSKNNIFMSNSYPRDFVNCSTLPALNLASWREAS
With B2, in experiment [2], the “HFF cell growth or viability” value was “Neither APX nor MPO had a major effect”. For the same molecule, the “increase in collagen I production” value in experiment [5] was found to be 3 fold.

As usually defined, the inhibition is the drop in the measured response relative to a control, in per cent.
